Measured values reported in PMC10008561.

Tests used:
[1] = molecular target: human KOR R170A (human) (UniProt P41145)
[2] = molecular target: human KOR L253A (human) (UniProt P41145)
[3] = molecular target: human KOR R257A (human) (UniProt P41145)
[4] = molecular target: human KOR D155A (human) (UniProt P41145)

Gαz fused with Renilla luciferase (Gα-RLuc8), sequence (P19086 whole entry, the tested form may be a part): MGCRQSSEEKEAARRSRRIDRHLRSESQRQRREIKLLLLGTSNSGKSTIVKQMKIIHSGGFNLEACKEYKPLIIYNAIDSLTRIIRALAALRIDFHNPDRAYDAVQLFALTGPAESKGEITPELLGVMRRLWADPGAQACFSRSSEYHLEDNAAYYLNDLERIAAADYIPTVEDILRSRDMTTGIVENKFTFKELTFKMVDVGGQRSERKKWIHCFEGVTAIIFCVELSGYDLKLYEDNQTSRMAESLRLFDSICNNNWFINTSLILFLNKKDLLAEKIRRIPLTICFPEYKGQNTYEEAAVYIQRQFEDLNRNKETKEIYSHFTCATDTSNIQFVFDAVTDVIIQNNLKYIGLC
GαoB fused with Renilla luciferase (Gα-RLuc8), sequence (P09471 other isoform, or with tags, fused parts or gaps): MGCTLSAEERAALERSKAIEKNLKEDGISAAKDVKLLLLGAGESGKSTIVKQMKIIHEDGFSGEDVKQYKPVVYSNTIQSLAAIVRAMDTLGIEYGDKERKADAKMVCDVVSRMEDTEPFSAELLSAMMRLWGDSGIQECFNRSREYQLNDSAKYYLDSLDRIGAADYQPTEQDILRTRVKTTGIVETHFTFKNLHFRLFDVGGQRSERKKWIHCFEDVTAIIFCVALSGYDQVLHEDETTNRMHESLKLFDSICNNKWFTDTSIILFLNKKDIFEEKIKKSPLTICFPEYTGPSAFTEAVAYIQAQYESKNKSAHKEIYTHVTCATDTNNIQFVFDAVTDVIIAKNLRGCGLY
GαoA fused with Renilla luciferase (Gα-RLuc8), sequence (P09471 whole entry, the tested form may be a part): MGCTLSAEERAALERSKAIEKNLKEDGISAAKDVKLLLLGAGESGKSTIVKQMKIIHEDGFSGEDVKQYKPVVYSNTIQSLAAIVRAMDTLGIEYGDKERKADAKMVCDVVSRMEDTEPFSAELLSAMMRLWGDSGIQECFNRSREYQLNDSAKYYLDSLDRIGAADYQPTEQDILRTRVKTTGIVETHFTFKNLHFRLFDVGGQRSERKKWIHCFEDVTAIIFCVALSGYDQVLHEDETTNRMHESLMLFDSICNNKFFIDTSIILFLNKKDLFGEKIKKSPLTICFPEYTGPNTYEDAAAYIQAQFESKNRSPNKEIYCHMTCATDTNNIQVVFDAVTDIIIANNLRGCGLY
Gαi2 fused with Renilla luciferase (Gα-RLuc8), sequence (P04899 whole entry, the tested form may be a part): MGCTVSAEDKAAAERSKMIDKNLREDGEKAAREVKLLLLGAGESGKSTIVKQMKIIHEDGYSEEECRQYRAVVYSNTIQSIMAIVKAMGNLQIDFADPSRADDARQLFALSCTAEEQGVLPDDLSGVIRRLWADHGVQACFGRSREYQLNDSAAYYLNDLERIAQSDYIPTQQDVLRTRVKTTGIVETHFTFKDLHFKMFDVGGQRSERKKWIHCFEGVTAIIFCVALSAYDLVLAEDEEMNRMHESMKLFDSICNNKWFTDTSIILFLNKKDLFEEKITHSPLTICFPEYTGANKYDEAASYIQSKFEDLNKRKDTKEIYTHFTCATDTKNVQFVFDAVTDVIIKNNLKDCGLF
Gαi3 fused with Renilla luciferase (Gα-RLuc8), sequence (P08754 whole entry, the tested form may be a part): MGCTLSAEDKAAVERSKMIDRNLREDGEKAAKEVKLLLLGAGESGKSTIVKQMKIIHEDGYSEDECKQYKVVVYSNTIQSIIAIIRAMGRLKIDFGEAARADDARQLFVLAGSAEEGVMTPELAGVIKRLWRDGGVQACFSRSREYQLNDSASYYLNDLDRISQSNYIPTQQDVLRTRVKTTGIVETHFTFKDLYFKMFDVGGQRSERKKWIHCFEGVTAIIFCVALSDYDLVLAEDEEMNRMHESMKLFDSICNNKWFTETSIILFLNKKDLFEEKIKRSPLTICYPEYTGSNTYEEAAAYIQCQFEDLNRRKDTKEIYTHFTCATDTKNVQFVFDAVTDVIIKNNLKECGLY
Gα gustducin fused with Renilla luciferase (Gα-RLuc8), sequence (A8MTJ3 whole entry, the tested form may be a part): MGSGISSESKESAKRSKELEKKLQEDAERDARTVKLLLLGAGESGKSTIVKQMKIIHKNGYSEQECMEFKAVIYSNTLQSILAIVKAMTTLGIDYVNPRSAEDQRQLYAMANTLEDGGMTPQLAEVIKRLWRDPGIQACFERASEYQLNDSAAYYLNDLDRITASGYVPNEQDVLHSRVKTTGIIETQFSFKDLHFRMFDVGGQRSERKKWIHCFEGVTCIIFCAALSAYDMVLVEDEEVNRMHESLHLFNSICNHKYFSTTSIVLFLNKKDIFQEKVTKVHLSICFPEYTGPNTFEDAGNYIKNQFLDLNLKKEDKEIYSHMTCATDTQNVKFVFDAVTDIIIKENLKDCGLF

“Gα gustducin fused with Renilla luciferase (Gα-RLuc8) (from UniProt A8MTJ3 1-354) (natural protein)” showed a BRET2 G protein activation (TRUPATH); fold decrease of the potency of nalfurafine against wild-type KOR [1] of 10 fold, a BRET2 G protein activation (TRUPATH) with nalfurafine; fold decrease against wild-type KOR [2] of 10 fold and a BRET2 G protein activation (TRUPATH) with nalfurafine; fold decrease against wild-type KOR [3] of 10 fold. The BRET2 G protein activation (TRUPATH); fold decrease of the potency of nalfurafine against wild-type KOR [4] was < 10 fold.
With “Gαi2 fused with Renilla luciferase (Gα-RLuc8) (from UniProt P04899 1-355) (natural protein)” the BRET2 G protein activation (TRUPATH); fold decrease of the potency of nalfurafine against wild-type KOR [1] was 100 fold, the BRET2 G protein activation (TRUPATH) with nalfurafine; fold decrease against wild-type KOR [2] was 100 fold and the BRET2 G protein activation (TRUPATH) with nalfurafine; fold decrease against wild-type KOR [3] was 100 fold. For the same substance, the BRET2 G protein activation (TRUPATH); fold decrease of the potency of nalfurafine against wild-type KOR [4] was < 10 fold.
“Gαi3 fused with Renilla luciferase (Gα-RLuc8) (from UniProt P08754 1-354) (natural protein)” gave a BRET2 G protein activation (TRUPATH); fold decrease of the potency of nalfurafine against wild-type KOR [1] of 100 fold, a BRET2 G protein activation (TRUPATH) with nalfurafine; fold decrease against wild-type KOR [2] of 100 fold and a BRET2 G protein activation (TRUPATH) with nalfurafine; fold decrease against wild-type KOR [3] of 100 fold. The BRET2 G protein activation (TRUPATH); fold decrease of the potency of nalfurafine against wild-type KOR [4] was < 10 fold.
With “GαoA fused with Renilla luciferase (Gα-RLuc8) (from UniProt P09471 1-354) (natural protein)” the BRET2 G protein activation (TRUPATH); fold decrease of the potency of nalfurafine against wild-type KOR [1] was 10 fold, the BRET2 G protein activation (TRUPATH) with nalfurafine; fold decrease against wild-type KOR [2] was 10 fold and the BRET2 G protein activation (TRUPATH) with nalfurafine; fold decrease against wild-type KOR [3] was 10 fold. The BRET2 G protein activation (TRUPATH); fold decrease of the potency of nalfurafine against wild-type KOR [4] was < 10 fold.
“GαoB fused with Renilla luciferase (Gα-RLuc8) (from UniProt P09471-2 1-354) (natural protein)” was tested, and the BRET2 G protein activation (TRUPATH); fold decrease of the potency of nalfurafine against wild-type KOR [1] was 10 fold, the BRET2 G protein activation (TRUPATH) with nalfurafine; fold decrease against wild-type KOR [2] was 10 fold and the BRET2 G protein activation (TRUPATH) with nalfurafine; fold decrease against wild-type KOR [3] was 10 fold. For the same substance, the BRET2 G protein activation (TRUPATH); fold decrease of the potency of nalfurafine against wild-type KOR [4] was < 10 fold.
For “Gαz fused with Renilla luciferase (Gα-RLuc8) (from UniProt P19086 1-355) (natural protein)”, the BRET2 G protein activation (TRUPATH); fold decrease of the potency of nalfurafine against wild-type KOR [1] was 10 fold, the BRET2 G protein activation (TRUPATH) with nalfurafine; fold decrease against wild-type KOR [2] was 10 fold and the BRET2 G protein activation (TRUPATH) with nalfurafine; fold decrease against wild-type KOR [3] was 10 fold. The BRET2 G protein activation (TRUPATH); fold decrease of the potency of nalfurafine against wild-type KOR [4] was < 10 fold.
